Laboratory results taken from paper PMC8670446.

Molecular target: His-tagged luciferase, heat-aggregated on the BLI sensor [luciferase: P08659]
Assay: BLI; protein aggregate immobilised on the sensor (His-tagged luciferase on Ni-NTA); Ssa1 variant together with Sis1 WT in solution, 1 µM each unless specified differently; buffer A (25 mM Hepes-KOH pH 8.0, 75 mM KCl, 15 mM MgCl2) with 2 mM DTT and 5 mM ATP; the signal is that of both chaperones

Chain of His-tagged luciferase, heat-aggregated on the BLI sensor [luciferase: P08659] (P08659 whole entry): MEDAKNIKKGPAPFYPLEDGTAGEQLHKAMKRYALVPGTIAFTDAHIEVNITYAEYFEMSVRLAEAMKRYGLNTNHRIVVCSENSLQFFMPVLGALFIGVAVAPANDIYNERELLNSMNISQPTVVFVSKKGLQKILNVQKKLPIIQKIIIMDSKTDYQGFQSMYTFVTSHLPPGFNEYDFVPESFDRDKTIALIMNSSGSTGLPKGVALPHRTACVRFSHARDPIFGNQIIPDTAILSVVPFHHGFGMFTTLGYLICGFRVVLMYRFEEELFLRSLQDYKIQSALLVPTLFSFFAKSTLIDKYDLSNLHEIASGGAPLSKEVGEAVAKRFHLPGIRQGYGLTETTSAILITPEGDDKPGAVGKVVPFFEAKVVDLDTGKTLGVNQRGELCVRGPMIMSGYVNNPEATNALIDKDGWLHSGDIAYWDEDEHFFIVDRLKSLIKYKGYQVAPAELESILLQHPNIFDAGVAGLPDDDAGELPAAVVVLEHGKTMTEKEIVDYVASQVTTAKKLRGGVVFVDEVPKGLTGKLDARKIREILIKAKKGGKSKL
Chain of Ssa1 (P10591 whole entry): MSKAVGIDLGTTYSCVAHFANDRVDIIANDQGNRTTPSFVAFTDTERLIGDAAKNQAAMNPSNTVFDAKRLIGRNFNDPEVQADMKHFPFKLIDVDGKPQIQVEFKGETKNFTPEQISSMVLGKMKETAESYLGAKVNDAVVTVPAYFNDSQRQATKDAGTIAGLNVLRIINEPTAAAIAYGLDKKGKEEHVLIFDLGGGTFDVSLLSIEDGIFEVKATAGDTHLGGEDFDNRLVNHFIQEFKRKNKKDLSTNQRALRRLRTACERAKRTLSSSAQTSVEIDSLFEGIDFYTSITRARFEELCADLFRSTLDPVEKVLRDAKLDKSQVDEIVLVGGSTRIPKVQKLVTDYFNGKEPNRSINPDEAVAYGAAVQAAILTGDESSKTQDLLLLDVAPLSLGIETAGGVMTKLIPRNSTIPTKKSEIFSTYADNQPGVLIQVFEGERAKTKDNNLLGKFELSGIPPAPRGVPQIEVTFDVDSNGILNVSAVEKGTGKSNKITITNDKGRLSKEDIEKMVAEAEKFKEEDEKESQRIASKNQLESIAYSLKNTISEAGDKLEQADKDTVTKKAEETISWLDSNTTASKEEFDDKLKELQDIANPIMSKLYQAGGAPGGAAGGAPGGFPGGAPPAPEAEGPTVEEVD

Substance: Ssa1 (from UniProt P10591 1-642) (natural protein)
- BLI layer thickness (Sis1 and Ssa1 together): 7 nm
